{"source": "paper PMC11531469", "about": "“Molecular mechanism of parental H3/H4 recycling at a replication fork” (Nature Communications, 2024)", "settings_in_all_cases": "both partners purified", "key": {"[1]": {"target": "T1, histone H3/H4 tetramer (UniProt P61830 1-136; P02309 1-103)", "assay": "native gel or EMSA; 0.5 uM Cdc45-7HIS mixed with 0-2 uM H3/H4 tetramer, 15 min at 30 °C; 25 mM HEPES-KOH pH 7.5, 1 mM EDTA, 10% glycerol, 0.05% Tween 20, 300 mM KCl; loss of the free Cdc45 band on 5-20% Tris-Glycine gel, Coomassie; apparent"}, "[2]": {"target": "T1, histone H3/H4 tetramer", "assay": "native gel or EMSA; 0.5 uM Cdc45-7HIS mixed with 0-2 uM H3/H4 tetramer, 15 min at 30 °C; 25 mM HEPES-KOH pH 7.5, 1 mM EDTA, 10% glycerol, 0.05% Tween 20, 150 mM KCl; loss of the free Cdc45 band on 5-20% Tris-Glycine gel, Coomassie; apparent"}, "[3]": {"target": "T1, histone H3/H4 tetramer", "assay": "native gel or EMSA; 0.5 uM Cdc45-7HIS mixed with 0-2 uM H3/H4 tetramer, 15 min at 30 °C; 25 mM HEPES-KOH pH 7.5, 1 mM EDTA, 10% glycerol, 0.05% Tween 20, 750 mM KCl; loss of the free Cdc45 band on 5-20% Tris-Glycine gel, Coomassie; apparent"}}, "data": [{"binder": "Cdc45-7HIS (budding yeast Cdc45, wild type) (natural protein, Cdc45, budding yeast; also called WT; source: Escherichia coli, purified) ISQFSEAYNKILRNSSSHSSCQLVIFVSCLNIDALCATKMLSLLFKKQLVQSQIVPIFGYSELRRHYSQLDDNINSLLLVGFGGVIDLEAFLEIDPQEYVIDTDEKSGEQSFRRDIYVLDAHRPWNLDNIFGSQIIQCFDDGTVDDTLGEQKEAYYKLLELDEESGDDELSGDENDNNGGDDEATDADEVTDEDEEDEDETISNKRGNSSIGPNDLSKRKQRKKQIHEYEGVLEEYYSQGTTVVNSISAQIYSLLSAIGETNLSNLWLNILGTTSLDIAYAQVYNRLYPLLQDEVKRLTPSSRNSVKTPDTLTLNIQPDYYLFLLRHSSLYDSFYYSNYVNAKLSLWNENGKKRLHKMFARMGIPLSTAQETWLYMDHSIKRELGIIFDKNLDRYGLQDIIRDGFVRTLGYRGSISASEFVEALTALLEVGNSTDKDSVKINNDNNDDTDGEEEEDNSAQKLTNLRKRWVSNFWLSWDALDDRKVELLNRGIQLAQDLQRAIFNTGVAILEKKLIKHLRIYRLCVLQDGPDLDLYRNPLTLLRLGNWLIECCAESEDKQLLPMVLASIDENTDTYLVAGLTPRYPRGLDTIHTKKPILNNFSMAFQQITAETDAKVRIDNFESSIIEIRREDLSPFLEKLTLSGLL", "values": [{"measurement": "Kd", "setting": "[1]", "value": 90, "unit": "nM"}, {"measurement": "Kd", "setting": "[2]", "value": 68, "unit": "nM"}, {"measurement": "Kd", "setting": "[3]", "value": 216, "unit": "nM"}]}]}
